Measured values from patent US11781164B2, “Demethylation of reticuline and derivatives thereof with fungal cytochrome P450” (priority 2017, dated 2023).

B1: CYPDN12: cytochrome P450 homolog A0A1C7N669 from Choanephora cucurbitarum, codon-optimized (protein, listed as Choanephora cucurbitarum)
chain: MFTETALQIYHQMAEKVLPILKRQPKSSYIGAALVFLLVAEIRRQLSVPKHLKKFPTIGVFTLMKSFMRNDSVIERHNRLVAPIVKQGHKFYAAKIPFDWSLSIVDPEIAKIMLMKSDAFPKSQGFTRKLGDSSLIVRFTGRDNVSISNGHVWKRQRKFMNPAFRRSTPIKTFGELTLKFFDCVDEQPQDFPAAIKLKNYTLDALGIAAFDFDFKSLSGDPEGWTEIYNVIMKGMFDPWVFLFGKMEFILQYIIPSKRECIKSVVKFNKMLVEMADKRRQEIQNGKKLNTPNSEKDLLTLMIEAEMEEGIMTTNEELRENIALFFLAGQDSTGNSLSFCLYHLAKNKHVQDKLRREIMSVMGDRDLDAIPTVEDFKDMPYLNMVIKENLRLSGPADRFLDRVVAEDIVLGGELIPKGTLITVDVASIHYNPEYWHDPEVFIPERFEPNGEFDQHAGVAWLPFSNGARQCIGMNFSLAEQRVFLTMLLRRYEVGISKDSIHYDSIVYEQSFTFAPSSLTLNFTKLN
B2: CYPDN18: cytochrome P450 homolog A0A0C9MNJ6 from Mucor ambiguus, codon-optimized (protein, listed as Mucor ambiguus)
chain: MYSTASYNQTLERVVSVVRKNKTSYIGMAILCVVLQQIYSSFAVPPKHLRRFPKVSFMELMKSFYKKESVMNRNKRLVTPLTNAGHGFYISRIPLDWTIYVTDPIAAKTLLLKTDNFPKSHAIFGALGESSPVVKFMGNENVAVSNDILWRKQRKIMNPAFHRSQPVKVFGGVMPDLFALIDQDPEHVFITPKIKSFALDALGLSAFGFDFQSLKNDPEGWTSKYNTVVSSLFNPFVNLFAKCDFLIKYISAERRRVIKVTDEFNAMLSNLADKRRQEIMNGEKKNIAENEKDLLTLMIEADTREGVETTTTELRHNMAIFFLAGHDTTANTLALCLYQLAKHKHVQKKARQEVLDILGDDPWDVAPSLEDLKKLNYLNMVIKENLRRNGPVDNLMSRDTQQDINLNGTFIPKGSKVVINVASIHLNPKIWHNPESFIPERFEQGGEFDSHDGFTWLPFSNGSRQCLGLNFSLTEQRVALCMLLKRYEIDIPKDSIHYDEIVFDKAFTFAPQSLELSFKKRY
B3: CYPDN13: cytochrome P450 homolog A0A1X2HZE4 from Absidia repens, codon-optimized (protein, listed as Absidia repens)
chain: MGTSYKRKAAYVTIGAAVVLLFRSIYGFYYVPKSLRHLPCVGYRELAYSIMKREDAATRARSVLGQAIKEKNGAFVAKFPMEWTVFLTSPRTIQAVLLKSDKFPKTYDMFHALGESSPFVKFLGIKNVGFSNGDDWKRQRKVMNPAFQRSVPVEMFGKLMQKGILAIEKQGYEVRALDFFERITLDSIGIFLFSFDFGSLDNPNSVWSLTYDTIRRGIKNPALTVFPQLDCLLKYVTPGRRHLDQCVTKLNNLLMEVAKEKRRQVQSPSDKLIPDSEKDLLTLILEAELRGDGSASDEELRGNLALFFLAGHETTASAMCFCLYNLAMNKDIQEKARKEVLEVLGDEPVDVRPDIQDLKQFRYMDMILHENLRRFGPAAMLLPRKSEEDFVADGILIPKNTPVVIDLNTMHHNPQVWKDPEIFDPERFAPGGEYEANGEKMAWLPFSSGSRVCIGKSFSMAEQRVFLSMLLKKYEWDFPDDSIHRDGIKMENFENNAPESLSFRFHPRY
B4: CYPDN10: cytochrome P450 homolog A0A0B7NB52 from Parasitella parasitica, codon-optimized (protein, listed as Parasitella parasitica)
chain: MAIENFMQSYNRAIENVLPILRKRSKASYIGMAIMCIVIKQVYSAYSVPKHLQRFPKVSFLSMIRSYLIKEAVVERTKRLVTPLTDAGHGFYVCKIPLTWTVFVTDPIAAKTLLLKTEFFPKSHAFFDALGDNSPAVQFLGRENVAASNGEIWKKQRKFMNPAFLRSSPVKTFSSVTHNLIKVIETQSDAVPIANCMKAFTIDALGLSAFGFDFQSLNGDPEGWTETYNIAIAGLFDPFINIFVKVDFMMNYISSKRKRINKAITRFNSMLEDLANKRRQEILNGETLGVPENEKDLLTLMIEADIREGSRTTSTELRHNIALFFLAGHDTTAHTLAFCLYNLAKNKHVQAKARAEVLDILGDEPKDVDPTMEDLKRMDYLNMVIKENLRRCGPVDKLLSRDTAEDIDLNGTLIPKGQKISIDFNSIHMNPKLWHNPEEFVPERFEPGGEFDQHTGFTWLPFSHGSRQCIGMNFSLTEQKVLLSMICKRAIEEI
B5: CYPDN14: cytochrome P450 homolog A0A168T1R5 from Absidia glauca, codon-optimized (protein, listed as Absidia glauca)
chain: MPIVNALQTYSYEEPINFLKDVWLNRLFPAGTSNRKKAALLTLGATIALVCRTVYRLYRVPRSLRHIPAVGYVAMLRSILKREDATTRAMTIFQPAMKKGNGVFLVNFPLEWSIYVAEPLAAKAVLMKSDNFPKSIDFIHALGKENPVVKFFGTDNVALVNGEQWKRQRKVMNPAFHRAMPVQMFGRLLQKGFKNIEEQGHQVAALDFFQRLTLDALGHAVFGFDFGALNDREAVWTVTYESIRLNLRNPLAFAFPSMDWLLKYVIPGRLQMAASVDKLNGLMMDMIKEKRIKLLESQAQDDTPENEKDLLTLMLEAEQRGEGTTNDEELRSNMAVFFLAGHETTANTMSFCLYNLAMDKSVQEKARQEVIKVLGDEPEDVLPRNEELRQIPYLDMILKENLRRFGPASMLNARKTVEDFDMNGTFIPKNTSVIVETNALHHNPEVWKNPEQFDPERFAPGGEHETSHEGMAWLPFSSGSRGCLGMNFSMAEQRVFLAMLLRKYEWDLPKDSIHKNGIQIGNFQNACPDSLKIQFTPRY
B6: CYPDN11: cytochrome P450 homolog A0A068SB73 from Lichtheimia corymbifera, codon-optimized (protein, listed as Lichtheimia corymbifera)
chain: MAVASPQIKNMVTMDRLQDIYSTVSQHVVAHASAVTSRQRKISISAAVALVAFYTVYKVVTPPANLRHIPSMGFFSYLNAFLRGKQLHDISKNVVLPHAVNVDNGVYLRFDILGWTVHIARPEAAKRFLLKSDIFPKADMISERGNTLFGKFVFNRNIVMLNGDDWKAQRKVANPAFHRAMPVELFGRLTQKTLKKMEEEMDGGTLNFHDITERYTLEVIGLAGFEFEFGAIENPKSEWVDRYQRLIEATFNPWFIAFPNLDMRYRFLFPSRKRLHREMDAFLDKMSQVITHKRELLNHQKTTVPESERDILTLMIEAEKNGEGSMTNEELQNNLLVFFIAGHDTTSLALSYAAYYLAVNPDVQRKAREEAIRVLGDAPEDVMPTVEQTRQLTYINMVIKETLRMSPPLATIPVREASEDTELCGTFIPKGTRTFLDIYEIQHNPTVWKDPETFKPERFKPGGEAEELAGSGMSWLPFSNGSRQCIGLNFSLVEQRVFLPMLLRKYEWHLPEDSIHKERIQTMGLAVIKPKDLKLTFKKRY
B7: CYPDN16: cytochrome P450 homolog A0A1X2HFU1 from Syncephalastrum racemosum, codon-optimized (protein, listed as Syncephalastrum racemosum)
chain: MTQLTTPDTLGKLLAIYRQTPASRRASWIGWAVAATVIASQLYKTLVPPSNLPNLPTINYFRLLSSFLRRDSPTIRSQEILIPALEKHEQKKAYLAKLPLTWTVFLVDPIAAKIFLMKMDIFPKIKETIDALDSQHPIVEFFGRENVAISVGEAWRNQRKVMNPAFRRAMPISIFGNLMFKVFKNIEENKPVIAIDLMQAFTLDALGRAAFSFDFHALDDQHSIWVETYEIIRQSLRNPANAVLARYNFITKYLMPGRAKQKAATHKLNSLLLEMASRKRAELEKHPELRELPDSEKDLLTLMVEADMESGDDPTSAELLRANLSVFFLAGHDTTANTLSFWLYHMAVNKDVQAKAREEVIKILGDGPEDVMPTADQCKQMTYLDCIIKENLRLLGPASQLIPRMATEDVDLNGIFIPKGTRVTVDMHTMHYSPMLWKDPGVFKPDRFLDEGEHSQHRGLAWLPFSSGGRQCLGMNFSLTEQRVVMSMMLRKYTWELPADSIHRDGVKLNEVNTVAPRTLSIIFQQRYH

Tested on: thebaine
Experiment: Demethylation of thebaine by new cytochrome P450 fungal and plant homologs co-expressed with CPRs in S. cerevisiae
Details: 0.5 mM thebaine, SC or DELFT media pH 7, 72 h, 30° C.; co-expressed with Cel_CPR_co, Tp_CPR_5866, Tp_CPR_DN10898 or POR1

Row | Molecule | Northebaine production
1 | B1 | +
2 | B2 | +
3 | B3 | +
4 | B4 | +
5 | B5 | +
6 | B6 | +
7 | B7 | +
